Measured values published in IntAct's records for PubMed 23357641.

B1: Nephronectin (Mus musculus), Q91V88 (parent)
chain: MAVLLAAVLASSLYLQVAADFDGRWPRQIVSSIGLCRYGGRIDCCWGWARQSWGQCQPVCQPQCKHGECVGPNKCKCHPGFAGKTCNQDLNECGLKPRPCKHRCMNTFGSYKCYCLNGYMLLPDGSCSSALSCSMANCQYGCDVVKGQVRCQCPSPGLQLAPDGRTCVDIDECATGRVSCPRFRQCVNTFGSYICKCHTGFDLMYIGGKYQCHDIDECSLGQHQCSSYARCYNIHGSYKCQCRDGYEGDGLNCVYIPKVMIEPSGPIHMPERNGTISKGDGGHANRIPDAGSTRWPLKTPYIPPVITNRPTSKPTTRPTPNPTPQPTPPPPPPLPTEPRTTPLPPTPERPSTRPTTIAPATSTTTRVITVDNRIQTDPQKPRGDVFIPRQPTNDLFEIFEIERGVSADEEVKDDPGILIHSCNFDHGLCGWIREKDSDLHWETARDPAGGQYLTVSAAKAPGGKAARLVLRLGHLMHSGDLCLSFRHKVTGLHSGTLQVFVRKHGTHGAALWGRNGGHGWRQTQITLRGADVKSVIFKGEKRRGHTGEIGLDDVSLKRGRC

Variants of: B1
Conditions: with agrin_human AGRN

Variant | effect of a mutation on the interaction
MAVLLAAVLASSLYLQVAADFDGRWPRQIVSSIGLCRYGGRIDCCWGWARQSWGQCQPVCQPQCKHGECVGPNKCKCHPGFAGKTCNQDLNECGLKPRPCKHRCMNTFGSYKCYCLNGYMLLPDGSCSSALSCSMANCQYGCDVVKGQVRCQCPSPGLQLAPDGRTCVDIDECATGRVSCPRFRQCVNTFGSYICKCHTGFDLMYIGGKYQCHDIDECSLGQHQCSSYARCYNIHGSYKCQCRDGYEGDGLNCVYIPKVMIEPSGPIHMPERNGTISKGDGGHANRIPDAGSTRWPLKTPYIPPVITNRPTSKPTTRPTPNPTPQPTPPPPPPLPTEPRTTPLPPTPERPSTRPTTIAPATSTTTRVITVDNRIQTDPQKPRGDVFIPRQPTNDLFEIFEIERGVSADEEVKDDPGILIHSCNFDHGLCGWIREKDSDLHWETARDPAGGQYLTVSAAAAPGGAAARLVLRLGHLMHSGDLCLSFRHKVTGLHSGTLQVFVRKHGTHGAALWGRNGGHGWRQTQITLRGADVKSVIFKGEKRRGHTGEIGLDDVSLKRGRC [K459A;K464A] | decreasing interaction
MAVLLAAVLASSLYLQVAADFDGRWPRQIVSSIGLCRYGGRIDCCWGWARQSWGQCQPVCQPQCKHGECVGPNKCKCHPGFAGKTCNQDLNECGLKPRPCKHRCMNTFGSYKCYCLNGYMLLPDGSCSSALSCSMANCQYGCDVVKGQVRCQCPSPGLQLAPDGRTCVDIDECATGRVSCPRFRQCVNTFGSYICKCHTGFDLMYIGGKYQCHDIDECSLGQHQCSSYARCYNIHGSYKCQCRDGYEGDGLNCVYIPKVMIEPSGPIHMPERNGTISKGDGGHANRIPDAGSTRWPLKTPYIPPVITNRPTSKPTTRPTPNPTPQPTPPPPPPLPTEPRTTPLPPTPERPSTRPTTIAPATSTTTRVITVDNRIQTDPQKPRGDVFIPRQPTNDLFEIFEIERGVSADEEVKDDPGILIHSCNFDHGLCGWIREKDSDLHWETARDPAGGQYLTVSAAKAPGGKAARLVLRLGHLMHSGDLCLSFRHKVTGLHSGTLQVFVRKHGTHGAALWGRNGGHGWRQTQITLAGADVKSVIFKGEKRRGHTGEIGLDDVSLKRGRC [R528A] | decreasing interaction
MAVLLAAVLASSLYLQVAADFDGRWPRQIVSSIGLCRYGGRIDCCWGWARQSWGQCQPVCQPQCKHGECVGPNKCKCHPGFAGKTCNQDLNECGLKPRPCKHRCMNTFGSYKCYCLNGYMLLPDGSCSSALSCSMANCQYGCDVVKGQVRCQCPSPGLQLAPDGRTCVDIDECATGRVSCPRFRQCVNTFGSYICKCHTGFDLMYIGGKYQCHDIDECSLGQHQCSSYARCYNIHGSYKCQCRDGYEGDGLNCVYIPKVMIEPSGPIHMPERNGTISKGDGGHANRIPDAGSTRWPLKTPYIPPVITNRPTSKPTTRPTPNPTPQPTPPPPPPLPTEPRTTPLPPTPERPSTRPTTIAPATSTTTRVITVDNRIQTDPQKPRGDVFIPRQPTNDLFEIFEIERGVSADEEVKDDPGILIHSCNFDHGLCGWIREKDSDLHWETAADPAGGQYLTVSAAKAPGGKAARLVLRLGHLMHSGDLCLSFRHKVTGLHSGTLQVFVRKHGTHGAALWGRNGGHGWRQTQITLRGADVKSVIFKGEKRRGHTGEIGLDDVSLKRGRC [R445A] | decreasing interaction
MAVLLAAVLASSLYLQVAADFDGRWPRQIVSSIGLCRYGGRIDCCWGWARQSWGQCQPVCQPQCKHGECVGPNKCKCHPGFAGKTCNQDLNECGLKPRPCKHRCMNTFGSYKCYCLNGYMLLPDGSCSSALSCSMANCQYGCDVVKGQVRCQCPSPGLQLAPDGRTCVDIDECATGRVSCPRFRQCVNTFGSYICKCHTGFDLMYIGGKYQCHDIDECSLGQHQCSSYARCYNIHGSYKCQCRDGYEGDGLNCVYIPKVMIEPSGPIHMPERNGTISKGDGGHANRIPDAGSTRWPLKTPYIPPVITNRPTSKPTTRPTPNPTPQPTPPPPPPLPTEPRTTPLPPTPERPSTRPTTIAPATSTTTRVITVDNRIQTDPQKPRGDVFIPRQPTNDLFEIFEIERGVSADEEVKDDPGILIHSCNFDHGLCGWIREKDSDLHWETARDPAGGQYLTVSAAKAPGGKAARLVLRLGHLMHSGDLCLSFRHKVTGLHSGTLQVFVAAAGTHGAALWGRNGGHGWRQTQITLRGADVKSVIFKGEKRRGHTGEIGLDDVSLKRGRC [R502A;K503A;H504A] | decreasing interaction
MAVLLAAVLASSLYLQVAADFDGRWPRQIVSSIGLCRYGGRIDCCWGWARQSWGQCQPVCQPQCKHGECVGPNKCKCHPGFAGKTCNQDLNECGLKPRPCKHRCMNTFGSYKCYCLNGYMLLPDGSCSSALSCSMANCQYGCDVVKGQVRCQCPSPGLQLAPDGRTCVDIDECATGRVSCPRFRQCVNTFGSYICKCHTGFDLMYIGGKYQCHDIDECSLGQHQCSSYARCYNIHGSYKCQCRDGYEGDGLNCVYIPKVMIEPSGPIHMPERNGTISKGDGGHANRIPDAGSTRWPLKTPYIPPVITNRPTSKPTTRPTPNPTPQPTPPPPPPLPTEPRTTPLPPTPERPSTRPTTIAPATSTTTRVITVDNRIQTDPQKPRGDVFIPRQPTNDLFEIFEIERGVSADEEVKDDPGILIHSCNFDHGLCGWIREKDSDLHWETARDPAGGQYLTVSAAKAPGGKAARLVLRLGHLMHSGDLCLSFRHKVTGLHSGTLQVFVRKHGTHGAALWGRNGGHGWRQTQITLRGADVKSVIFKGEKRRGHTGEIGLDDVSLAAAAC [K557A;R558A;G559A;R560A] | decreasing interaction
MAVLLAAVLASSLYLQVAADFDGRWPRQIVSSIGLCRYGGRIDCCWGWARQSWGQCQPVCQPQCKHGECVGPNKCKCHPGFAGKTCNQDLNECGLKPRPCKHRCMNTFGSYKCYCLNGYMLLPDGSCSSALSCSMANCQYGCDVVKGQVRCQCPSPGLQLAPDGRTCVDIDECATGRVSCPRFRQCVNTFGSYICKCHTGFDLMYIGGKYQCHDIDECSLGQHQCSSYARCYNIHGSYKCQCRDGYEGDGLNCVYIPKVMIEPSGPIHMPERNGTISKGDGGHANRIPDAGSTRWPLKTPYIPPVITNRPTSKPTTRPTPNPTPQPTPPPPPPLPTEPRTTPLPPTPERPSTRPTTIAPATSTTTRVITVDNRIQTDPQKPRGDVFIPRQPTNDLFEIFEIERGVSADEEVKDDPGILIHSCNFDHGLCGWIREKDSDLHWETARDPAGGQYLTVSAAKAPGGKAARLVLRLGHLMHSGDLCLSFRHKVTGLHSGTLQVFVRKHGTHGAALWGRNGGHGWRQTQITLRGADVKSVIFKGEAAAGHTGEIGLDDVSLKRGRC [K541A;R542A;R543A] | decreasing interaction
MAVLLAAVLASSLYLQVAADFDGRWPRQIVSSIGLCRYGGRIDCCWGWARQSWGQCQPVCQPQCKHGECVGPNKCKCHPGFAGKTCNQDLNECGLKPRPCKHRCMNTFGSYKCYCLNGYMLLPDGSCSSALSCSMANCQYGCDVVKGQVRCQCPSPGLQLAPDGRTCVDIDECATGRVSCPRFRQCVNTFGSYICKCHTGFDLMYIGGKYQCHDIDECSLGQHQCSSYARCYNIHGSYKCQCRDGYEGDGLNCVYIPKVMIEPSGPIHMPERNGTISKGDGGHANRIPDAGSTRWPLKTPYIPPVITNRPTSKPTTRPTPNPTPQPTPPPPPPLPTEPRTTPLPPTPERPSTRPTTIAPATSTTTRVITVDNRIQTDPQKPRGDVFIPRQPTNDLFEIFEIERGVSADEEVKDDPGILIHSCNFDHGLCGWIREKDSDLHWETARDPAGGQYLTVSAAKAPGGKAARLVLALGHLMHSGDLCLSFRHKVTGLHSGTLQVFVRKHGTHGAALWGRNGGHGWRQTQITLRGADVKSVIFKGEKRRGHTGEIGLDDVSLKRGRC [R471A] | decreasing interaction
